Results taken from PMC7900914 (Nature structural & molecular biology, 2017).

Molecular target: HLA-B*57:01–TW10 (human |  | HIV-1)
Test: SPR

B1: KIR3DL1*001 (similar construct, from insect cells) (receptor)
chain: HMGGQDKPFLSAWPSAVVPRGGHVTLRCHYRHRFNNFMLYKEDRIHIPIFHGRIFQESFNMSPVTTAHAGNYTCRGSHPHSPTGWSAPSNPVVIMVTGNHRKPSLLAHPGPLVKSGERVILQCWSDIMFEHFFLHKEGISKDPSRLVGQIHDGVSKANFSIGPMMLALAGTYRCYGSVTHTPYQLSAPSDPLDIVVTGPYEKPSLSAQPGPKVQAGESVTLSCSSRSSYDMYHLSREGGAHERRLPAVRKVNRTFQADFPLGPATHGGTYRCFGSFRHSPYEWSDPSDPLLVSVTGNPS
Question: How did the Kd turn out when B1 was run?
Answer: ~60 µM
